{"source": "paper PMC10318635", "about": "“ER Ca^2+ overload activates the IRE1α signaling and promotes cell survival” (Cell & Bioscience, 2023)", "target": "T1, Flag-tagged IRE1α-LD (UniProt O75460 19-440)", "T1 construct": "signal peptide in the construct; inositol-requiring enzyme 1 (IRE1α/ERN1), luminal domain (LD), residues 1-440; The signal peptide is probably removed in HEK-293T cells; also called IRE1α-LD-FLAG; LD-FLAG; source: HEK-293T, purified (M2 beads, eluted with Flag peptide, concentrated by ultrafiltration)", "T1 sequence (looked up)": "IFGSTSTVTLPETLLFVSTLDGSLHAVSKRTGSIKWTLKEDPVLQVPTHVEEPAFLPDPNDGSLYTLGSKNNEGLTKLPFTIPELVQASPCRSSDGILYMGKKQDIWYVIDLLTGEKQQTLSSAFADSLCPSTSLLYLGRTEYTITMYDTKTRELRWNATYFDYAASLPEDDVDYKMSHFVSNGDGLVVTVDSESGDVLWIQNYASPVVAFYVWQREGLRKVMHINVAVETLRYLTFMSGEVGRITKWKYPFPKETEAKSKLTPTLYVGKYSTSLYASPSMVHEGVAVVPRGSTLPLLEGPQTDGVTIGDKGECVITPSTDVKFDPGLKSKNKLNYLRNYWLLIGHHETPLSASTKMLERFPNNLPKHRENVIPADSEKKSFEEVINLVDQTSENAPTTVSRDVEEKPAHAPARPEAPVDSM", "test": "pull-down; GST-BiP-NBD immobilized on glutathione Sepharose 4B beads, incubated with IRE1α-LD-FLAG eluate in buffer B (50 mM HEPES, 75 mM NaCl, 10% glycerol, 1 mM TCEP, pH 7.5) with 0.5 or 0.8 mM Ca2+, room temperature, 2 h; anti-FLAG immunoblot", "conditions": "both partners purified"}
{"binder": "GST-tagged BiP-nucleotide binding domain (NBD) (domain or fragment, also called GST-BiP-NBD; BiP-NBD; source: bacterially purified, immobilized on glutathione Sepharose 4B beads) not shown", "values": [{"measurement": "binding result", "result": "binds"}]}
